From US20200222478A1

molecular target: HLA-A*01:01 (human); assay: UV peptide exchange + HLA class I ELISA; conditions: remark: other sources report otherwise

exchange rate vs Pos peptide	Binder
2.5%	LMAQRLLLR (here or on the partner: biotinylated heavy chain) [P97 9-mer peptide (FOXRED2-TXN2 fusion)]
2.5%	HVPKILSGK (here or on the partner: biotinylated heavy chain) [P58 9-mer peptide (AR (Q903H))]
0.1%	YCMAAPMGL (here or on the partner: biotinylated heavy chain) [P76 9-mer peptide (AR-V3 splice variant)]
1.5%	RVGNCKHLK (here or on the partner: biotinylated heavy chain) [P82 9-mer peptide (AR-V7 splice variant)]
2.5%	IVWWCPMSR (here or on the partner: biotinylated heavy chain) [P98 9-mer peptide (TP53 (R213D) frameshift)]
1.1%	FLFLLLPLS (here or on the partner: biotinylated heavy chain) [P87 9-mer peptide (AR-Intron splice variant)]
1.7%	CYLGRQKRF (here or on the partner: biotinylated heavy chain) [P61 9-mer peptide (FOXA1.p.R261G)]
3.1%	YLRRQKRLK (here or on the partner: biotinylated heavy chain) [P60 9-mer peptide (FOXA1.p.F266L)]

Continued, binder first:

Binder	exchange rate vs Pos peptide
RAVRRMNTF (here or on the partner: biotinylated heavy chain) [P17 9-mer peptide (MSMB-NOCA4 fusion)]	4.9%
QLIAMDSAI (here or on the partner: biotinylated heavy chain) [P22 9-mer peptide (SLC45A3-ELK4 fusion)]	4.4%
CPMSRLRLA (here or on the partner: biotinylated heavy chain) [P46 9-mer peptide (TP53 (R213D) frameshift)]	2.4%
RAKCKFSIL (here or on the partner: biotinylated heavy chain) [P56 9-mer peptide (SPOP(F102C))]	2.6%
IPVLTRWPL (here or on the partner: biotinylated heavy chain) [P19 9-mer peptide (TMEM222-LOC644961 fusion)]	5.2%
YQFTFDLLI (here or on the partner: biotinylated heavy chain) [P48 9-mer peptide (AR.p.H875Y)]	4.3%

molecular target: HLA-A*02:01 (human); assay: UV peptide exchange + HLA class I ELISA; conditions: remark: other sources report otherwise

exchange rate vs Pos peptide	Binder
4.6%	LMAQRLLLR (here or on the partner: biotinylated heavy chain) [P97 9-mer peptide (FOXRED2-TXN2 fusion)]
11.8%	HVPKILSGK (here or on the partner: biotinylated heavy chain) [P58 9-mer peptide (AR (Q903H))]
85.9%	YCMAAPMGL (here or on the partner: biotinylated heavy chain) [P76 9-mer peptide (AR-V3 splice variant)]
6.3%	RVGNCKHLK (here or on the partner: biotinylated heavy chain) [P82 9-mer peptide (AR-V7 splice variant)]
7.9%	IVWWCPMSR (here or on the partner: biotinylated heavy chain) [P98 9-mer peptide (TP53 (R213D) frameshift)]
89.2%	LLERNSFEV (here or on the partner: biotinylated heavy chain) [P73 9-mer peptide (TP53 (G266E))]
64%	FLFLLLPLS (here or on the partner: biotinylated heavy chain) [P87 9-mer peptide (AR-Intron splice variant)]
5.8%	CYLGRQKRF (here or on the partner: biotinylated heavy chain) [P61 9-mer peptide (FOXA1.p.R261G)]
7.9%	YLRRQKRLK (here or on the partner: biotinylated heavy chain) [P60 9-mer peptide (FOXA1.p.F266L)]

More lines, now with the values behind:

Binder	exchange rate vs Pos peptide
QLIAMDSAI (here or on the partner: biotinylated heavy chain) [P22 9-mer peptide (SLC45A3-ELK4 fusion)]	46.9%
CPMSRLRLA (here or on the partner: biotinylated heavy chain) [P46 9-mer peptide (TP53 (R213D) frameshift)]	14.4%
RAKCKFSIL (here or on the partner: biotinylated heavy chain) [P56 9-mer peptide (SPOP(F102C))]	8.4%
IPVLTRWPL (here or on the partner: biotinylated heavy chain) [P19 9-mer peptide (TMEM222-LOC644961 fusion)]	8.2%
YQFTFDLLI (here or on the partner: biotinylated heavy chain) [P48 9-mer peptide (AR.p.H875Y)]	99.3%

molecular target: HLA-A*03:01 (human); assay: UV peptide exchange + HLA class I ELISA; conditions: remark: other sources report otherwise

exchange rate vs Pos peptide	Binder
39%	LMAQRLLLR (here or on the partner: biotinylated heavy chain) [P97 9-mer peptide (FOXRED2-TXN2 fusion)]
32.5%	HVPKILSGK (here or on the partner: biotinylated heavy chain) [P58 9-mer peptide (AR (Q903H))]
6%	YCMAAPMGL (here or on the partner: biotinylated heavy chain) [P76 9-mer peptide (AR-V3 splice variant)]
58.1%	RVGNCKHLK (here or on the partner: biotinylated heavy chain) [P82 9-mer peptide (AR-V7 splice variant)]
51.1%	IVWWCPMSR (here or on the partner: biotinylated heavy chain) [P98 9-mer peptide (TP53 (R213D) frameshift)]
3.5%	LLERNSFEV (here or on the partner: biotinylated heavy chain) [P73 9-mer peptide (TP53 (G266E))]
2.4%	FLFLLLPLS (here or on the partner: biotinylated heavy chain) [P87 9-mer peptide (AR-Intron splice variant)]
36.6%	YLRRQKRLK (here or on the partner: biotinylated heavy chain) [P60 9-mer peptide (FOXA1.p.F266L)]

The next lines start with the binder.

Binder	exchange rate vs Pos peptide
RAVRRMNTF (here or on the partner: biotinylated heavy chain) [P17 9-mer peptide (MSMB-NOCA4 fusion)]	3.8%
QLIAMDSAI (here or on the partner: biotinylated heavy chain) [P22 9-mer peptide (SLC45A3-ELK4 fusion)]	4.8%
CPMSRLRLA (here or on the partner: biotinylated heavy chain) [P46 9-mer peptide (TP53 (R213D) frameshift)]	10.3%
RAKCKFSIL (here or on the partner: biotinylated heavy chain) [P56 9-mer peptide (SPOP(F102C))]	6.8%
IPVLTRWPL (here or on the partner: biotinylated heavy chain) [P19 9-mer peptide (TMEM222-LOC644961 fusion)]	4.1%
YQFTFDLLI (here or on the partner: biotinylated heavy chain) [P48 9-mer peptide (AR.p.H875Y)]	4.4%

molecular target: HLA-A*24:02 (human); assay: UV peptide exchange + HLA class I ELISA; conditions: remark: other sources report otherwise

exchange rate vs Pos peptide	Binder
0.1%	LMAQRLLLR (here or on the partner: biotinylated heavy chain) [P97 9-mer peptide (FOXRED2-TXN2 fusion)]
0.2%	HVPKILSGK (here or on the partner: biotinylated heavy chain) [P58 9-mer peptide (AR (Q903H))]
-0.5%	YCMAAPMGL (here or on the partner: biotinylated heavy chain) [P76 9-mer peptide (AR-V3 splice variant)]
-0.1%	RVGNCKHLK (here or on the partner: biotinylated heavy chain) [P82 9-mer peptide (AR-V7 splice variant)]
-0.1%	IVWWCPMSR (here or on the partner: biotinylated heavy chain) [P98 9-mer peptide (TP53 (R213D) frameshift)]
0.5%	LLERNSFEV (here or on the partner: biotinylated heavy chain) [P73 9-mer peptide (TP53 (G266E))]
0.2%	FLFLLLPLS (here or on the partner: biotinylated heavy chain) [P87 9-mer peptide (AR-Intron splice variant)]
90.3%	CYLGRQKRF (here or on the partner: biotinylated heavy chain) [P61 9-mer peptide (FOXA1.p.R261G)]
0.9%	YLRRQKRLK (here or on the partner: biotinylated heavy chain) [P60 9-mer peptide (FOXA1.p.F266L)]

The next lines start with the binder.

Binder	exchange rate vs Pos peptide
RAVRRMNTF (here or on the partner: biotinylated heavy chain) [P17 9-mer peptide (MSMB-NOCA4 fusion)]	0.1%
QLIAMDSAI (here or on the partner: biotinylated heavy chain) [P22 9-mer peptide (SLC45A3-ELK4 fusion)]	0%
CPMSRLRLA (here or on the partner: biotinylated heavy chain) [P46 9-mer peptide (TP53 (R213D) frameshift)]	-0.4%
RAKCKFSIL (here or on the partner: biotinylated heavy chain) [P56 9-mer peptide (SPOP(F102C))]	0.5%
IPVLTRWPL (here or on the partner: biotinylated heavy chain) [P19 9-mer peptide (TMEM222-LOC644961 fusion)]	0.1%
YQFTFDLLI (here or on the partner: biotinylated heavy chain) [P48 9-mer peptide (AR.p.H875Y)]	0.1%

molecular target: HLA-B*07:02 (human); assay: UV peptide exchange + HLA class I ELISA; conditions: remark: other sources report otherwise

exchange rate vs Pos peptide	Binder
7%	LMAQRLLLR (here or on the partner: biotinylated heavy chain) [P97 9-mer peptide (FOXRED2-TXN2 fusion)]
91.5%	YCMAAPMGL (here or on the partner: biotinylated heavy chain) [P76 9-mer peptide (AR-V3 splice variant)]
12.9%	RVGNCKHLK (here or on the partner: biotinylated heavy chain) [P82 9-mer peptide (AR-V7 splice variant)]
6.7%	IVWWCPMSR (here or on the partner: biotinylated heavy chain) [P98 9-mer peptide (TP53 (R213D) frameshift)]
8.7%	LLERNSFEV (here or on the partner: biotinylated heavy chain) [P73 9-mer peptide (TP53 (G266E))]
5%	FLFLLLPLS (here or on the partner: biotinylated heavy chain) [P87 9-mer peptide (AR-Intron splice variant)]
6.1%	YLRRQKRLK (here or on the partner: biotinylated heavy chain) [P60 9-mer peptide (FOXA1.p.F266L)]

The remaining lines, values behind:

Binder	exchange rate vs Pos peptide
RAVRRMNTF (here or on the partner: biotinylated heavy chain) [P17 9-mer peptide (MSMB-NOCA4 fusion)]	38.7%
QLIAMDSAI (here or on the partner: biotinylated heavy chain) [P22 9-mer peptide (SLC45A3-ELK4 fusion)]	8.3%
CPMSRLRLA (here or on the partner: biotinylated heavy chain) [P46 9-mer peptide (TP53 (R213D) frameshift)]	64.8%
RAKCKFSIL (here or on the partner: biotinylated heavy chain) [P56 9-mer peptide (SPOP(F102C))]	82.5%
IPVLTRWPL (here or on the partner: biotinylated heavy chain) [P19 9-mer peptide (TMEM222-LOC644961 fusion)]	91.3%
YQFTFDLLI (here or on the partner: biotinylated heavy chain) [P48 9-mer peptide (AR.p.H875Y)]	12.8%

molecular target: HLA-B*08:01 (human); assay: UV peptide exchange + HLA class I ELISA; conditions: remark: other sources report otherwise

exchange rate vs Pos peptide	Binder
2.7%	LMAQRLLLR (here or on the partner: biotinylated heavy chain) [P97 9-mer peptide (FOXRED2-TXN2 fusion)]
5.3%	HVPKILSGK (here or on the partner: biotinylated heavy chain) [P58 9-mer peptide (AR (Q903H))]
1.4%	RVGNCKHLK (here or on the partner: biotinylated heavy chain) [P82 9-mer peptide (AR-V7 splice variant)]
2.4%	IVWWCPMSR (here or on the partner: biotinylated heavy chain) [P98 9-mer peptide (TP53 (R213D) frameshift)]
2.6%	LLERNSFEV (here or on the partner: biotinylated heavy chain) [P73 9-mer peptide (TP53 (G266E))]
3.1%	FLFLLLPLS (here or on the partner: biotinylated heavy chain) [P87 9-mer peptide (AR-Intron splice variant)]
3.6%	CYLGRQKRF (here or on the partner: biotinylated heavy chain) [P61 9-mer peptide (FOXA1.p.R261G)]
10.2%	YLRRQKRLK (here or on the partner: biotinylated heavy chain) [P60 9-mer peptide (FOXA1.p.F266L)]

Further lines, the binder ahead of its results:

Binder	exchange rate vs Pos peptide
QLIAMDSAI (here or on the partner: biotinylated heavy chain) [P22 9-mer peptide (SLC45A3-ELK4 fusion)]	3.9%
CPMSRLRLA (here or on the partner: biotinylated heavy chain) [P46 9-mer peptide (TP53 (R213D) frameshift)]	14.5%
RAKCKFSIL (here or on the partner: biotinylated heavy chain) [P56 9-mer peptide (SPOP(F102C))]	38%
IPVLTRWPL (here or on the partner: biotinylated heavy chain) [P19 9-mer peptide (TMEM222-LOC644961 fusion)]	14.5%
